The subject of data set [1] is IC9LC11 non-small cell lung cancer patient-derived xenograft. Briefly: Antitumor activity in IC9LC11 non-small cell lung cancer patient-derived xenograft model. The following applies: 5 mg/kg; control group end day, D28. It counts as in vivo, immunodeficient female mice. (Xenograft models place foreign cells or tissue in a host animal.)
Data set [2] deals with T1, human Endo180-moFc domains I-IV (aa 31-513) (human, UniProt Q9UBG0 31-513).
T1 construct: also called huEndo180 (DI-IV); huEndo180-moFc DI-IV; not shown: murine Fc domain
T1 sequence: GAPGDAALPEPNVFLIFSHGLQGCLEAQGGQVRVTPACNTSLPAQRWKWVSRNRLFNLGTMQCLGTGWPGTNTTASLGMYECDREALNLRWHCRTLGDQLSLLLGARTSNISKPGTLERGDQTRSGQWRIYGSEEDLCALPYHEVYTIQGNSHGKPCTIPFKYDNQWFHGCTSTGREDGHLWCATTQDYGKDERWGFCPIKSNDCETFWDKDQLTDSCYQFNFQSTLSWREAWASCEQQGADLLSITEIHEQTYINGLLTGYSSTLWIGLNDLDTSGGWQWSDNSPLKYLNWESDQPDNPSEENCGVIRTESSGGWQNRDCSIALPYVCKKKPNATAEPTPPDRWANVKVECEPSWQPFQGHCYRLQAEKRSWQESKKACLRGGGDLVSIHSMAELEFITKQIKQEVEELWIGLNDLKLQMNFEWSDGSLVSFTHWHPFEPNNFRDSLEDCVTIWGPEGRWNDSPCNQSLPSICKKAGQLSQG
Briefly: ELISA, immobilized human Endo180-mouse Fc DI-IV.

Data set [3] has as its target T2, Endo180 on cells (Endo180-expressing HT1080-WT cells; Endo180-transfected HEK293-Endo180 cells) (UniProt Q9UBG0 31-1479).
T2 construct: whole, on cells; One molecule is used for the endogenous protein on HT1080-WT and the transfected protein on HEK293-Endo180; also called uPARAP
T2 sequence (looked up): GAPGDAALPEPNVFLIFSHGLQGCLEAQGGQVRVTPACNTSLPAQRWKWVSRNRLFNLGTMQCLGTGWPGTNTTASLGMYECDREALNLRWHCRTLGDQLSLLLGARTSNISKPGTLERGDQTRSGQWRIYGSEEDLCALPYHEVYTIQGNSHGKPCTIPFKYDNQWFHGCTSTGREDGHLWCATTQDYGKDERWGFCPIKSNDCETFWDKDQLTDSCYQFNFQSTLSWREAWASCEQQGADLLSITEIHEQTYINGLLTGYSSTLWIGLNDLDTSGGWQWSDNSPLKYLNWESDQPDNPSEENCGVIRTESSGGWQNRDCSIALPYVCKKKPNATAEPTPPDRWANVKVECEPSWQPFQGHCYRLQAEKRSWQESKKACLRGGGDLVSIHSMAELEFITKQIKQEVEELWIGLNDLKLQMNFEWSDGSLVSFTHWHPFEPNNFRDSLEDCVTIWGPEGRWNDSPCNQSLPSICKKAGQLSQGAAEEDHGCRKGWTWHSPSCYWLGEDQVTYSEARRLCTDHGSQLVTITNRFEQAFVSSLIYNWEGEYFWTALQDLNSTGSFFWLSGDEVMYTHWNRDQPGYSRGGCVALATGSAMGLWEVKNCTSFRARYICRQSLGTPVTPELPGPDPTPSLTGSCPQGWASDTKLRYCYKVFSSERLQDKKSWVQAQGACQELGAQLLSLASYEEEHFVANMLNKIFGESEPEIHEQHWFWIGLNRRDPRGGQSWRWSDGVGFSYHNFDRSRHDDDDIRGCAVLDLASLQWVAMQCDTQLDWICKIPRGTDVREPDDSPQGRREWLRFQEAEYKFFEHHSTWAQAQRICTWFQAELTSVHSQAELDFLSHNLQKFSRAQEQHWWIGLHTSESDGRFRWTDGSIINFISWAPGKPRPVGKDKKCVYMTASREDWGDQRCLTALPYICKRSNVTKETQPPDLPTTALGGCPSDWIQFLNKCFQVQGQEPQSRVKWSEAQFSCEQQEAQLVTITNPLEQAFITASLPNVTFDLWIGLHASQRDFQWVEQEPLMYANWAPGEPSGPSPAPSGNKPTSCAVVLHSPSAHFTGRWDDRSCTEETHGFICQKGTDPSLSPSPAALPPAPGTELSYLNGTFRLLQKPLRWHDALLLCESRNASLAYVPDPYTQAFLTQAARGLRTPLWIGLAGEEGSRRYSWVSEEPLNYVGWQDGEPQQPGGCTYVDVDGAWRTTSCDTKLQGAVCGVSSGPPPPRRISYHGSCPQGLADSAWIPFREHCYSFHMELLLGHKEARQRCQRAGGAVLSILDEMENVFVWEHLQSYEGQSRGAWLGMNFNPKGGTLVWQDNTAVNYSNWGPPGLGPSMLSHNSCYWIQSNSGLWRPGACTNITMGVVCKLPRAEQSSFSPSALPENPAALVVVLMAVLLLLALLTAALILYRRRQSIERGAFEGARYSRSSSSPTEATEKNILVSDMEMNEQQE
Briefly: flow cytometry on HT1080-WT cells.

Data set [4] has as its target T3, human Endo180-moFc domains I-III (aa 31-370) (human, UniProt Q9UBG0 31-370).
T3 construct: also called huEndo180 (DI-III); huEndo180-moFc DI-III; not shown: murine Fc domain
T3 sequence: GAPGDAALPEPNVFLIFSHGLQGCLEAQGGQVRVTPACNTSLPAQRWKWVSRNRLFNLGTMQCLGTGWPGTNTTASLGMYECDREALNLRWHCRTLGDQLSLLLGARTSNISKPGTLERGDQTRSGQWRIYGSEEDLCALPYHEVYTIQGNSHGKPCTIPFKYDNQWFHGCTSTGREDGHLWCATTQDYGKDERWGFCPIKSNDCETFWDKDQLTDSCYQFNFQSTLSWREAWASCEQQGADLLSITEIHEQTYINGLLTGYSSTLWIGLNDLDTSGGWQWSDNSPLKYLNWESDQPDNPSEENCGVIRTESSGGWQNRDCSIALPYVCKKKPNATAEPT
Briefly: ELISA, immobilized human Endo180-mouse Fc DI-III. A general note: ELISA stands for enzyme-linked immunosorbent assay.

Data set [5] has as its target T2, Endo180 on cells (Endo180-expressing …). Briefly: flow cytometry on HEK293-Endo180 cells. On the technique in general: In flow cytometry, cells or beads pass a laser one at a time.

Broadly, the TGI is how far tumour growth fell short of that in controls. A lower TGI goes with a weaker effect on the tumour. Usually EC50 stands for the concentration giving half of the maximal effect. High values mean a less potent agent, low ones a more potent agent.

As to `CC(=O)O[C@@]12CO[C@@H]1C[C@H](O)[C@@]1(C)C(=O)[C@H](O)C3=C(C)[C@@H](OC(=O)[C@H](O)[C@@H](NC(=O)OC(C)(C)C)c4ccccc4)C[C@@](O)([C@@H](OC(=O)c4ccccc4)[C@H]21)C3(C)C` [Docetaxel], where the note is “mouse, in vivo”, the “tolerability based on body weight data and clinical observations” value is reported as “well tolerated, except in one mouse”. The relative weight loss (one mouse, at the group end day) turned out to be 16.0%. The TGI in data set [1] is listed as 73%.

B1: IgG G7V Δab (antibody, V domains shown)
VH: EVQLVESGGGLVKPGGSLRLSCAASGFTFSSYSMNWVRQAPGKGLEWVANIKPDGSERHSVDSVKGRFTISRDNSKNSLYLQMNSLRAEDTAVYYCARPGAGRLDYWGQGTLVTVSS
VL: SSELTQDPAVSVALGQTVRITCQGDSLRSYYASWYQQKPGQAPVLVVYGKNNRPSGIPDRFSGSSSGNTASLTITGAQAEDEADYYCNSRDSSGNPWAFGGGTKVTVL
notes: also called IgG G7V with a silent Fc
Take B1: the EC50 in data set [2] turned out to be 0.53 nM; in data set [3], 3.7 nM; in data set [4], 0.45 nM.

B2: OMTX707 antibody-drug conjugate (antibody, human IgG1, lambda, V domains shown)
VH: B1 VH
VL: SSELTQDPAVSVALGQTVRITCQGDSLRSYYASWYQQKPGQAPVLVVYGKNNRPSGIPDRFSGSSSGNTASLTITGAQAEDEADYYCNSRDSSGNPWAFGGGTKVTVLG
modifications: drug-linker TAM558 on cysteine residues, non-site directed (sites not given); drug-linker TAM558 (cytolysin-linker maleimide caproyl vcPABA) on cysteine residues, non-site directed, DAR 3.79
notes: antibody-drug conjugate; also called OMTX707 ADC
In data set [5], B2 came in with an EC50 of 1.3 nM.

B3: OMTX807 ADC (antibody-drug conjugate) (antibody, human IgG1, lambda, V domains shown)
VH: B1 VH
VL: B2 VL
modifications: drug-linker GGFG-DXd on cysteine residues, non-specific site (sites not given); drug-linker GGFG-DXd on cysteine residues, non-specific site, DAR 8.05
notes: antibody-drug conjugate
The molecule B3 yielded an EC50 in data set [5] of 0.7 nM. This EC50 lies about 1.9-fold lower than the previous one.
